Laboratory results taken from US12358963B2, “Regenerative polypeptides and uses thereof” (Juvena Therapeutics, Inc., priority 2019, dated 2025).

Legend:
[1] = tested on: mouse myoblast cell lines; assay: Myogenic gene RNA expression in mouse myoblasts by real-time qPCR; type: cell-based; settings: 48h in fusion media
Description: (§1) Myogenic gene RNA expression (fold change to FM) in response to vehicle (FM) in mouse myoblast cell lines monitored by real-time qPCR. Myoblast were cultured 48h in fusion media. Mean±SD. n=3. (Y,Z) Differential induction of myogenic gene expression by FGF17 in human myoblast myoblasts. Quantitation table of myogenic gene RNA expression (fold change to FM-fusion media (DMEM+2% horse serum)) in response to FM or rh-FGF17 in aged human myoblast cell lines by real-time qPCR. Myoblast were cultured (B) 48 hours or (C) 72 hours in FM. Mean∓SD. n=3.
(§2) RNA was isolated from each well (RNeasy Mini Kit, Qiagen) and cDNA was obtained by reverse-transcription (High Capacity Reverse Transcription Kit, Thermo Fisher Scientific). Real-time quantitative PCR was performed using QuantStudio3 (Thermo Fisher).

[2] = tested on: mouse myoblast cells; assay: Mouse myoblast proliferation assay (EdU); type: cell-based; settings: for % EdU / Ave. + EdU Count: 48h; for Ave. + EdU Count: FM 165
Description: (§3) FIG. 5A) Bar graph quantitation of % EdU+ mouse myoblast in response to BMP7. Myoblast were cultured 48h in the presence of BMP7 at indicated dose. Fresh media and BMP7 was added every 24h, followed by 2 hour EdU pulse and fixation. Mean∓S.D. Significant p-values (Vehicle˜BMP7 0.025 ug/mL: 1.21E-07, Vehicle˜BMP7 0.075 ug/mL: 8.05E-07, Vehicle˜BMP7 0.2255 ug/mL: 3.37E-03, Vehicle˜BMP7 0.9 ug/mL: 4.99E-02). FIG. 5B) Bar graph quantitation of % EdU+ human myoblast (person) in response to BMP7. Myoblast were cultured 72h in the presence of BMP7 at indicated dose. Cells were pulsed with EdU for 4 hours before fixation. Mean∓S.D. Significant p-values (Vehicle˜BMP7 1.56 ng/mL: 0.04). (*p<0.05 by Welch's One-Tailed T-test, n=2)
FIG. 6A) Bar graph of % EdU+ mouse myoblast cells compared to vehicle. Mouse myoblast were cultured 48h in the presence of indicated factors, followed by a 2 hour EdU pulse prior to fixation. Mean∓S.D. Significant p-values (FM˜BMP7: 0.008 ug/mL: 3.17E-02, FM˜Leucine: 300 uM BMP7: 0.008 ug/mL: 2.77E-03, FM˜Leucine: 100 uM BMP7: 0.008 ug/mL: 3.72E-05, FM˜Leucine: 900 uM BMP7: 0.008 ug/mL: 2.52E-03). (*p<0.05 by One-Way ANOVA Tukey Honest Significant Difference, n=2-6)
FIG. 7A: Bar graph of % EdU+ mouse myoblast cells compared to vehicle. Mouse myoblast were cultured 48h in the presence of indicated factors. EdU pulse and fixation. Mean∓S.D. (*p<0.05 by Student's One-Tailed T-Test of increased activity, n=2-6)
FIG. 10A) The suspension CHO cells were transiently transfected with either the empty control plasmid or the FGF17-hFcm encoding plasmid. After four days, the culture supernatants were collected and added into the culture of mouse myoblast cells for 48 hours, followed by a 2 hour EdU pulse prior to fixation. […] FIG. 10B) The suspension CHO cells were transiently transfected with the FGF17-hFcm encoding plasmid. After four days, the culture supernatants were collected and FGF17-hFcm was affinity-purified by Protein A membrane column. The purified FGF17-hFcm was added into the culture of mouse myoblast cells for 48 hours, followed by a 2 hour EdU pulse and fixation.
(§4) FIG. 11A: SDS-PAGE of culture supernatants from CHO cells transiently transfected with FGF17-hFcm or its mutants encoding plasmids (FGF17d181-216-hFcm, FGF17d204-216-hFcm, FGF17R204QK207Q-hFcm). The expressed FGF17-hFcm proteins and the mutant proteins were indicated by the white arrowheads. FIG. 11B) The culture supernatants from CHO cells transiently transfected with different FGF17 encoding plasmids were added into the culture of mouse myoblast cells for 48 hours followed by 2 hour EdU pulse and fixation.
as §4, with “12A)” for “11A:”, “(FGF17d197-216-hFcm, FGF17K191AK193AS200A-hFcm).” for “(FGF17d181-216-hFcm, FGF17d204-216-hFcm, FGF17R204QK207Q-hFcm).”, “12B)” for “11B)”, “hours,” for “hours”
(§5) FIG. 14A: Bar graph of % EdU+ mouse myoblast cells compared to vehicle. Myoblast were cultured 48h in the presence of indicated factors. Fresh media and factors were added every 24h, followed by 2 hour EdU pulse and fixation. Mean∓S.D. Table quantitation of % EdU and p-values (*p<0.05 by One-Way ANOVA Tukey Honest Significant Difference, n=2-6)
as §5, with “15A:” for “14A:”, “p-values shown.” for “p-values”, “Student's One-Tailed T-Test of increased activity,” for “One-Way ANOVA Tukey Honest Significant Difference,”
Bar graph of total EdU+ mouse myoblast cells compared per condition. Myoblast were cultured 48h in the presence of indicated factors. […]

[3] = tested on: human chondrocyte; assay: Human chondrocyte proliferation (% EdU+); type: cell-based; settings: 48h, vehicle 0.744
Description: Chondrocytes were cultured for 48h in the presence of FGF17 at indicated dose. FGF18 was added at 0.1 ug/mL as a positive control. Fresh media and FGF17 was added every 24h. Table of % EdU+ chondrocyte and p-values depicted. Mean∓S.D. (*p<0.05 by Tukey Honest Significant Difference T-test, n=2-3)

[4] = tested on: 78 weeks old mice; assay: BaCl2 muscle injury in old mice, intramuscular FGF17; type: in vivo, mouse; settings: FGF17 500 ng/mL intramuscular 2h and 48h after BaCl2 injury
Description: FIG. 16A) Experiment overview. Intramuscular injection of 1.2% of BaCl2 (7 ul/TA) was used to generate chemical injury in the TAs of 78 weeks old mice. FGF17 (500 ng/mL) was administered via intramuscular injection after 2h and 48h of muscle injury. FIG. 16B) Quantification of the regenerative index calculated as the number of newly regenerated fibers per mm 2 of injury area. Regenerated fibers were identified as fibers with central nuclei,****p<0.0001 (unpaired t-test). FIG. 16C) Histogram showing the fibrotic index calculated as the percentage of the fibrotic area. *p=0.0186 (unpaired t-test).

[5] = tested on: aged human myoblast cell lines; assay: Myogenic gene RNA expression in aged human myoblasts by real-time qPCR; type: cell-based
Description: as §1, §2
Aged human myoblasts were cultured in well plates. […] Cells that had been cultured with IGF2 had increases in levels of MYOG at 48 hours and levels of MYOD at 72 hours.

[6] = tested on: 12 weeks old mice; assay: Dexamethasone induced muscle atrophy, FGF17; type: in vivo, mouse; settings: Dexamethasone 25 mg/kg i.p. 20 days; FGF17 0.5 mg/kg subcutaneous
Description: FIG. 17A) Experiment overview and groups. […] Muscle weight was assessed on Day 21. Forelimb grip strength and both limb grip strength were measured on Day 7, 13 and 21 FIG. 17B) TAs muscle weight over initial body weight shown as the percentage change from vehicle. ***p=0.0005, *p=0.0499. […] One way Anova corrected for multiple comparisons using Tukey method was used to compare data.
The experimental design is C57BL/6J male mice with daily administration of Vehicle, N=7; dexamethasone (25 mg/kg i.p.), N=6, or dexamethasone+treatment article, N=6, for 20 days. This design can be used to test any single factor identified and validated in in vitro assays or complex mixtures of 2 or more factors.
On day 21, animals are sacrificed, and animal weight recorded. 0.5 ml of blood is collected via cardiac puncture and processed to plasma for storage of plasma samples at −80° C. The animals are perfused with 1×PBS. After carefully dissecting the skin from the GA/TA muscles of each hind leg, photos are taken, followed by excision of exclusively the GA or TA muscle, weighing the muscles, then flash freezing in isopentane at −80 C.

[7] = tested on: human myoblast; assay: Human myoblast proliferation (nuclei counts, EdU counts); type: cell-based; settings: 72h; for Nuclei Counts: vehicle 2083.5
Description: as §3
Bar graph of total EdU+ mouse myoblast cells compared per condition. Myoblast were cultured 48h in the presence of indicated factors. Fresh media and factors were added every 24h, followed by 2 hour EdU pulse and fixation. Mean∓Standard Deviation(SD) Table quantitation of EdU counts per field and p-values for mouse assay (*p<0.05 by Student's One-Tailed T-Test of increased activity, n=3-6, Synergy values <1 are evidence of effect). Bar graph of total EdU+ human myoblast cells per condition. Myoblast were cultured 72h in the presence of indicated factors, followed by 4 hour EdU pulse and fixation. Fresh media and factors were added every 24h. Mean∓Standard Deviation(SD). Table quantitation of +EdU counts and p-values for human assay. (*p<0.05 by Student's One-Tailed T-Test of increased activity, n=3-6, Synergy values <1 are evidence of effect)

[8] = tested on: DM1 human myoblast; assay: Gene expression fold change in DM1 human myoblast; type: cell-based; settings: 48h; BMP7 50 ng/mL, Butyrate 100 nM, IGF2 200 ng/mL; FM 1.000

B1: FGF17: FGF17 polypeptide, FGFR agonist (protein, listed as Homo sapiens)
chain: TQGENHPSPNFNQYVRDQGAMTDQLSRRQIREYQLYSRTSGKHVQVTGRRISATAEDGNKFAKLIVETDTFGSRVRIKGAESEKYICMNKRGKLIGKPSGKSKDCVFTEIVLENNYTAFQNARHEGWFMAFTRQGRPRQASRSRQNQREAHFIKRLYQGQLPFPNHAEKQKQFEFVGSAPTRRTKRTRRPQPLT
Myf5 RNA expression (fold change to FM), Mean ([1]; FM 1.002): 1.376 | Myod1 RNA expression (fold change to FM), Mean ([1]; FM 1.002): 1.230 | Pax7 RNA expression (fold change to FM), Mean ([1]; FM 1.011): 6.118 | % EdU ([2]; FGF17 0.0062 ug/mL, vehicle 3.14): 4.81% | Ave. + EdU Count ([2]; FGF17 0.01 ug/mL): 476 | % EdU ([2]; FGF17 0.0125 ug/mL, vehicle 3.14): 3.02% | % Edu ([2]; FGF17 0.025 ug/mL, 48h (HA experiment), FM 11.162): 17.870% | % EdU ([2]; FGF17 0.025 ug/mL, vehicle 3.14): 3.85% | Ave. + EdU Count ([2]; FGF17 0.1 ug/mL): 1618 | % EdU ([3]; 0.1 ug/mL): 4.675% | % EdU ([3]; 0.20 ug/mL): 9.085% | % EdU ([3]; 0.40 ug/mL): 16.773% | Fibrotic index [4]: reducing fibrosis | Muscle regeneration (regenerative index) [4]: Promoted the Regeneration of Muscle | MYOD1 RNA expression (fold change to FM) ([5]; 48 hr, FM 1.001): 0.604 | MYOG RNA expression (fold change to FM) ([5]; 48 hr, FM 1.013): 2.353 | MYF5 RNA expression (fold change to FM) ([5]; 48 hr, FM 1.04): 1.922 | MYF5 RNA expression (fold change to FM) ([5]; 72 hr, FM 1.023): 0.499 | MYOD1 RNA expression (fold change to FM) ([5]; 72 hr, FM 1.055): 1.627 | MYOG RNA expression (fold change to FM) ([5]; 72 hr, FM 1.092): 13.124 | Muscle atrophy (muscle weight, forelimb and both limb force) [6]: Protects Against Dexamethasone Induced Muscle Atrophy | Ave. + EdU Counts ([7]; FGF17 0.1 ug/mL, FM 205): 349

B2: FGF18: FGF18 added at 0.1 ug/mL as a positive control (protein, UniProt O76093 28-207, looked up)
Fibroblast growth factor 18: EENVDFRIHVENQTRARDDVSRKQLRLYQLYSRTSGKHIQVLGRRISARGEDGDKYAQLLVETDTFGSQVRIKGKETEFYLCMNRKGKLVGKPDGTSKECVFIEKVLENNYTALMSAKYSGWYVGFTKKGRPRKGPKTRENQQDVHFMKRYPKGQPELQKPFKYTTVTKRSRRIRPTHPA
% EdU ([3]; 0.1 ug/mL): 6.039%

B3: BMP7: BMP7 polypeptide, BMP receptor agonist (protein, UniProt P18075 293-431, looked up)
Bone morphogenetic protein 7: STGSKQRSQNRSKTPKNQEALRMANVAENSSSDQRQACKKHELYVSFRDLGWQDWIIAPEGYAAYYCEGECAFPLNSYMNATNHAIVQTLVHFINPETVPKPCCAPTQLNAISVLYFDDSSNVILKKYRNMVVRACGCH
% EdU ([2]; BMP7 0.025 ug/mL, vehicle 10.56): 18.08% | % EdU ([2]; BMP7 0.075 ug/mL, vehicle 10.56): 17.53% | % EdU ([2]; BMP7 0.2255 ug/mL, vehicle 10.56): 14.93% | % EdU ([2]; BMP7 0.45 ug/mL, vehicle 10.56): 12.93% | % EdU ([2]; BMP7 0.9 ug/mL, vehicle 10.56): 13.91% | % EdU ([2]; BMP7 1.8 ug/mL, vehicle 10.56): 10.37% | MYF5 expression fold change compared to FM [8]: 0.709 | MYOD1 expression fold change compared to FM [8]: 0.709 | MYOG expression fold change compared to FM [8]: 0.361 | Nuclei Counts ([7]; BMP7 0.78 ng/mL, donor): 2144.5 | Nuclei Counts ([7]; BMP7 1.56 ng/mL): 2552.5 | Nuclei Counts ([7]; BMP7 3.12 ng/mL): 2408 | Nuclei Counts ([7]; BMP7 6.25 ng/mL): 2422.5 | Nuclei Counts ([7]; BMP7 12.5 ng/mL): 2706 | Nuclei Counts ([7]; BMP7 25 ng/mL): 2509
